Target: recombinantly expressed RBD ([change] domain) of bat sarbecovirus WIV16 (bat SARS-like coronavirus WIV16)

**Q.** Which EC50 (read off the curve) does the source give for “47D11 fully human IgG1 monoclonal antibody” here?
**A.** 0.09 µg/mL
